# Assay results reported in patent publication US20070243181.
# B1: recombinant IRAK4 (protein)
# chain: MNKPITPSTYVRCLNVGLIRKLSDFIDPQEGWKKLAVAIKKPSGDDRYNQFHIRRFEALLQTGKSPTSELLFDWGTTNCTVGDLVDLLIQNEFFAPASLLLPDAVPKTANTLPSKEAITVQQKQMPFCDKDRTLMTPVQNLEQSYMPPDSSSPENKSLEVSDTRFHSFSFYELKNVTNNFDERPISVGGNKMGEGGFGVVYKGYVNNTTVAVKKLAAMVDITTEELKQQFDQEIKVMAKCQHENLVELLGFSSDGDDLCLVYVYMPNGSLLDRLSCLDGTPPLSWHMRCKIAQGAANGINFLHENHHIHRDIKSANILLDEAFTAKISDFGLARASEKFAQTVMTSRIVGTTAYMAPEALRGEITPKSDIYSFGVVLLEIITGLPAVDEHREPQLLLDIKEEIEDEEKTIEDYIDKKMNDADSTSVEAMYSVASQCLHEKKNKRPDIKKVQQLLQEMTAS
# How the values were obtained:
# [1] = molecular target: myc-IRAK1c
# [2] = molecular target: myc-IRAK1c-KD
# myc-IRAK1c-KD, sequence (chain, as listed by the source): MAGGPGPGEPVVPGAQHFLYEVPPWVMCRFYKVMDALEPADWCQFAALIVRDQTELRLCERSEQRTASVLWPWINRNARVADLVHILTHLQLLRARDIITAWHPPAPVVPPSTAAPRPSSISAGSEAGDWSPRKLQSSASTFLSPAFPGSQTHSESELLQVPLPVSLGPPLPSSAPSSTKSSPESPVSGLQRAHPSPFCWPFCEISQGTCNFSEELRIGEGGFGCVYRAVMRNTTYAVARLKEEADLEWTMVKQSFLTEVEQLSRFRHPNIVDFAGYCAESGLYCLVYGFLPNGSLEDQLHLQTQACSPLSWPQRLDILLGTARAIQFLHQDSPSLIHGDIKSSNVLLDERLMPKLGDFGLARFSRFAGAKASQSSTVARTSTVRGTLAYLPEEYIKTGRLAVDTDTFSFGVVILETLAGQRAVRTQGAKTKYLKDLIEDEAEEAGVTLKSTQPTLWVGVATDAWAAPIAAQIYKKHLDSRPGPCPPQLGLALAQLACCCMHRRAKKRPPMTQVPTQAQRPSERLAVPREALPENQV
# myc-IRAK1c, sequence (chain, as listed by the source): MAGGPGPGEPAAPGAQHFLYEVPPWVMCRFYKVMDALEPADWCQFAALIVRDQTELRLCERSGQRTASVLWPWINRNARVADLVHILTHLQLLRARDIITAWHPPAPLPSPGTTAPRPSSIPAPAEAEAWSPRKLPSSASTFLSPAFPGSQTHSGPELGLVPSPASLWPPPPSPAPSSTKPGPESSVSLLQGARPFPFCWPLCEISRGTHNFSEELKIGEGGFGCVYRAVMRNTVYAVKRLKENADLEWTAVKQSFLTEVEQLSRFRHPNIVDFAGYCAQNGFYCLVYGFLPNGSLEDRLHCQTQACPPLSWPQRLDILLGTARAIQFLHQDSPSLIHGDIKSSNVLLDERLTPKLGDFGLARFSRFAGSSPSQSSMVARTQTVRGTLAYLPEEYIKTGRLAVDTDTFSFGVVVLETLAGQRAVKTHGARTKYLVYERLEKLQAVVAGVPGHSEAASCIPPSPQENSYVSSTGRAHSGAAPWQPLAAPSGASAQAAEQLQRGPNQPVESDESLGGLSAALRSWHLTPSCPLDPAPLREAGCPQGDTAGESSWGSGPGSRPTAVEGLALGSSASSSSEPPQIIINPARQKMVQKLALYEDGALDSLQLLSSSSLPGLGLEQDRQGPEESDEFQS
protein,measurement,setting,value
B1,"in vitro kinase assay on anti-myc immunoprecipitates, autoradiography",[1],Neither IPAK1c nor IPAK1c-KD showed any phosphorylation in the presence of IRAK4
same,"in vitro kinase assay on anti-myc immunoprecipitates, autoradiography",[2],Neither IPAK1c nor IPAK1c-KD showed any phosphorylation in the presence of IRAK4
